The record followed here is patent US20240352117A1.

In this assay the target is natural TSLP. The experiment in a line: cell-based or functional assay.

As to Tezepelumab (antibody), the IC50 of inhibiting STAT5 phosphorylation in SW756-STAT5-Luciferase reporter gene cells induced by natural TSLP turned out to be 1.45 ng/mL.
